Target: GILT-tagged GAA ZC-701 (human, UniProt P10253 70-952)
Test: SPR (Biacore 3000); biotinylated CI-MPR Dom10-13 on SA chip, analyte in solution, steady-state affinity fit, I1572T mutant surface as reference
Procedure: Following docking of the SA sensor chip, the SA chip was washed two times with deionized water. The flow cells to be coupled were conditioned by injecting 60 ml of a buffer containing 50 mM NaOH/1 M NaCl at a flow rate of 20 ml/min. The chip was washed with H2O as described above. The chip was then washed with coupling buffer (10 mM HEPES pH 7.4/100 mM NaCl) as described above. […] Flow cells (FC) 1 & 2 were coupled at a higher density than FC 3 & 4. FC1 and FC3 were immobilized with the mutant Dom 10-13 construct and were used as the reference surface (i.e., the response obtained from FC1 was subtracted from FC2; the response obtained from FC3 was subtracted from FC4). FC2 and FC4 were immobilized with the wild-type Dom10-13 construct. […] Following the 50 ml injection of coupling buffer containing the Dom10-13 constructs, the chip was washed with coupling buffer alone (10 ml injection at a flow rate of 10 ml/min). Remaining unbound streptavidin binding sites were saturated with biotin by two sequential 10 ml injections of biotin (10 mM) at a flow rate of 10 μl/min.
After coupling, the flow cells were equilibrated in running buffer (10 mM HEPES pH 7.0, 150 mM NaCl, and 0.005% (v/v) surfactant P20).

B1: biotinylated, His-tagged recombinant wild-type CI-MPR domains 10-13 (1288FS) (receptor)
chain: AGAPTGHHHHHHAPGLNDIFEAQKIEWHEPFDLTECSFKDGAGNSFDLSSLSRYSDNWEAITGTGDPEHYLINVCKSLAPQAGTEPCPPEAAACLLGGSKPVNLGRVRDGPQWRDGIIVLKYVDGDLCPDGIRKKSTTIRFTCSESQVNSRPMFISAVEDCEYTFAWPTATACPMKSNEHDDCQVTNPSTGHLFDLSSLSGRAGFTAAYSEKGLVYMSICGENENCPPGVGACFGQTRISVGKANKRLRYVDQVLQLVYKDGSPCPSKSGLSYKSVISFVCRPEAGPTNRPMLISLDKQTCTLFFSWHTPLACEQATECSVRNGSSIVDLSPLIHRTGGYEAYDESEDDASDTNPDFYINICQPLNPMHGVPCPAGAAVCKVPIDGPPIDIGRVAGPPILNPIANEIYLNFESSTPCLADKHFNYTSLIAFHCKRGVSMGTPKLLRTSECDFVFEWETPVVCPDEVRMDGCTLTDEQLLYSFNLSSLSTSTFKVTRDSRTYSVGVCTFAVGPEQGGCKDGGVCLLSGTKGASFGRLQSMKLDYRHQDEAVVLSYVNGDRCPPETDDGVPCVFPFIFNGKSYEECIIESRAKLWCSTTADYDRDHEWGFCRHSNSYRTSSIIFKCDEDEDIGRPQVFSEVRGCDVTFEWKTKVVCP
modifications: biotinylated with BirA enzyme in the Biotin AS domain
notes: The protein was immobilised on a streptavidin chip; also called p1288; HIS-BIOTIN-CI-MPR DOMAINS 10-13
- Kd: 33 nM
